Results published in publication PMC6449974.
Like-named read-outs stand apart in the source and are kept apart here.

Columns and labels:
[1] = target: biotinylated cross-linked CA hexamer (CA A14C/E45C/W184A/M185A) (HIV-1); experiment: SPR; Biacore S200; biotinylated CA K158C or biotinylated CA hexamer immobilised on streptavidin-modified CM5 chip; CypA injected at 1.1-72.8 uM; 10 mM HEPES pH 8, 0.005% Tween 20, 2 mM EDTA, 150 mM NaCl; equilibrium analysis, single experiments
[2] = target: biotinylated CA K158C (unassembled HIV-1 CA) (HIV-1); experiment: as above
[3] = target: cross-linked self-assembled CA tubes (CA A14C/E45C co-assembled with CA K158C-AF488) (HIV-1); experiment: TIRF fluorescence microscopy binding assay; cross-linked CA tubes held on the cover slip by an anti-p24 antibody; CypA 1-50 uM (1 uM AF647-CypA plus unlabelled CypA) flowed in; 50 mM Tris pH 8, 150 mM NaCl; equilibrium binding model on the CypA:CA molar ratio
[4] = target: native HIV-1 capsid (wild type CA lattice of authentic viral cores) (HIV-1 (pNL4.3-iGFP-ΔEnv and psPAX2)); experiment: TIRF fluorescence microscopy binding assay
[5] = target: native HIV-1 capsid (wild type CA lattice of authentic viral cores) (HIV-1 (pNL4.3-iGFP-ΔEnv and psPAX2)); experiment: TIRF fluorescence microscopy binding assay; remark: listed apart in the source

| Substance | Kd [1] | Kd [2] | Kd [3] | stoichiometry N (molar ratio of CypA:CA when saturated) [3] | Kd [4] | Kd [5] | stoichiometry N ([5]; scale: CypA loops occupied at saturation per capsid) | stoichiometry N ([5]; scale: CypA molecules bound per capsid at saturation) |
| --- | --- | --- | --- | --- | --- | --- | --- | --- |
| CypA K30D (enzyme) | 35.7 µM | 37.9 µM | 17 µM | 0.39 | – | – | – | – |
| CypA P29K (enzyme) | 21 µM | 20.6 µM | 16.4 µM | 0.32 | – | – | – | – |
| CypA K27D (enzyme) | 21.7 µM | 28.5 µM | 17.7 µM | 0.24 | – | – | – | – |
| CypA A25D (enzyme) | 20.8 µM | 22.6 µM | 17.2 µM | 0.39 | 8.7 µM | 11.2 µM | 877 | 688 |
